Reference: patent US9260500B2, “Peptide and use thereof” (Takeda Pharmaceutical Company Limited, priority 2009, dated 2016)
Non-standard residues stand in square brackets, D forms with d. *: point of attachment. Phe(4-NH2) = Nc1ccc(C[C@H](N)C(=O)O)cc1; Hyp = O=C(O)[C@@H]1C[C@@H](O)CN1; 4Pal = N[C@@H](Cc1ccncc1)C(=O)O; Cha = N[C@@H](CC1CCCCC1)C(=O)O; Cit = NC(=O)NCCC[C@H](N)C(=O)O; Isobutyryl = CC(C)C(=O)*; Nle = CCCC[C@H](N)C(=O)O; Abu = CC[C@H](N)C(=O)O; Dap = NC[C@H](N)C(=O)O; Aib = CC(C)(N)C(=O)O; Bz = O=C(c1ccccc1)*; βAla = NCCC(=O)O

Experiments:
human Y2 receptor [1] = target: T1, human Y2 receptor (Homo sapiens, UniProt P49146); assay: Human Y2 Receptor G Protein Binding Assay (GBA), [35S]GTPγS; format: biochemical; conditions: EC50 of test compound/EC50 of PYY(3-36) (PYY3-36 taken as 1), hY2R/CHO membrane fraction
T1 construct: expressed in transfected cells; membrane fraction
T1 sequence (P49146 1-381): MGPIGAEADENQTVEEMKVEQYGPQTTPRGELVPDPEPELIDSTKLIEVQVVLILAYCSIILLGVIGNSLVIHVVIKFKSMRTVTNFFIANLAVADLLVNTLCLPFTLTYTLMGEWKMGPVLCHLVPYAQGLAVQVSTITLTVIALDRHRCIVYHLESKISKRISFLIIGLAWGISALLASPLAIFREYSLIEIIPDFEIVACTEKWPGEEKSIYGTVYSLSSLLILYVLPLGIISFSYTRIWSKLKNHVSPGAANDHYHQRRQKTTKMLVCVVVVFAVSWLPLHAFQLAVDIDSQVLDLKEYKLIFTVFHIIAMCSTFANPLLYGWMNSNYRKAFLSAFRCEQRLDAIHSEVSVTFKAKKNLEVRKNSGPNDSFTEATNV
Experimental: (3) Test Method: Human Y2 Receptor G Protein Binding Assay (GBA)
The agonist activity of the compound of the present invention against the human Y2 receptor was measured by the method described below.
2 μL of the test compound, serially diluted with DMSO from 100 μM to 1 nM, was dispensed to a 96-well plate, and 100 μL of the membrane fraction, previously diluted with an assay buffer (50 mM Tris, 5 mM MgCl2, 150 mM NaCl, […], 0.03% NaN3, 0.1% BSA, pH 7.4) to 1 μg protein/mL, was dispensed thereto, subsequently, 100 μL of a [^35S]GTPγS (NEG030H, PerkinElmer, previously diluted with the assay buffer to 1 nM) was added, and they were mixed by pipetting. After incubation at room temperature for 120 minutes, the mixture was filtered through the cell harvester FilterMate (PerkinElmer) using the UniFilter-96 GF/C (PerkinElmer), and the filter was washed 3 times with a filtering buffer (50 mM Tris, 5 mM MgCl2, 150 mM NaCl, 0.03% NaN3, 0.05% CHAPS, pH 7.4). Thereafter, UniFilter-96 GF/C was dried in a mechanical drier for 1 hour, 15 μl of the liquid scintillator MicroScint O (PerkinElmer) was added to each well, and a measurement was taken using TopCount (PerkinElmer). The data obtained were analyzed using Prism to calculate the EC50 value. The agonist activity of the test compound was expressed as a ratio to the EC50 value of PYY3-36 taken as 1 (EC50 Ratio: EC50 of test compound/EC50 of PYY(3-36)). The results are shown in the GBA column in Table 5 (Table 5-1-Table 5-10).

human Y2 receptor [2] = target: T1, human Y2 receptor; assay: Receptor Binding Assay (RBA) for Human Y2, [125I]-PYY displacement on hY2R/CHO membrane fraction; conditions: IC50 of test compound/IC50 of PYY(3-36) (PYY(3-36) taken as 1)
Experimental: (1) Construction of Expression Plasmid for the Human Y2 Receptor (Y2R) Gene
PCR was performed by a reaction using Pfu DNA polymerase ([…]), with a human brain cDNA (PT3158-1, Clontech) as the template, wherein synthetic DNAs with the following sequences were used as a combination of 5′ and 3′ primers, whereby the human Y2R gene was cloned. Primer 1 was prepared on the basis of base sequence information on the human Y2R gene (Refseq ID No. NM_000910) with the addition of Kozak's consensus sequence. Primer 2 was prepared on the basis of base sequence information on the human Y2R gene.
The PCR product obtained was cloned into pCR4-Blunt-TOPO (Invitrogen), and the plasmid was extracted according to a conventional method (QIAwell 8 Plus, QIAGEN). After confirming the base sequence, the human Y2R gene was re-cloned by a PCR reaction with the plasmid DNA as the template, using Primer 1 as the 5′ primer and Primer 2 as the 3′ primer. The PCR was performed using the Pyrobest DNA polymerase (TaKaRa). The PCR product obtained was re-cloned into pCR-Blunt II-TOPO (Invitrogen), and the plasmid was extracted according to a conventional method (QIAGEN). An Xho I restriction enzyme digestion site and an Spe I restriction enzyme digestion site are present in the cloning site of the pCR-Blunt II-TOPO; a plasmid clone was selected wherein the human Y2R gene was inserted in the orientation such that the Xho I restriction enzyme digestion site was positioned upstream of Primer 1, and the Spe I restriction enzyme digestion site was positioned downstream of Primer 2. After confirming the base sequence, the plasmid clone was digested with the restriction enzymes Xho I and Spe I to yield a DNA fragment. The DNA fragment was inserted into the animal cell expression vector pAKKO-111H (the same plasmid as pAKKO-1.111H described in Biochem. Biophys. Acta, Hinuma, S. et al., 1219, 251-259 (1994)), which was enzymatically digested with Sal I and Spe I, to yield the expression plasmid pAK-hY2R (pAKKO-111H/Y2R).
(2) Test Method: Receptor Binding Assay (RBA) for Human Y2
A human NPY2R (hY2R) stable expression cell line was acquired by transducing the animal cell expression plasmid pAK-hY2R into CHO/dhfr-cells using the CellPhect Transfection kit (Amersham Pharmacia Biotech Co.). First, 240 μl of Buffer A (attached to the CellPhect Transfection kit) was added to 9.6 μg of the plasmid DNA dissolved in 240 μl of distilled water; this mixture was stirred and allowed to stand for 10 minutes, after which 480 μL of Buffer B (attached to the CellPhect Transfection kit) was added, and the mixture was vigorously stirred to form a liposome containing the DNA. 2.5×10^5 or 4×10^5 CHO/dhfr− cells (obtained from ATCC) were seeded to 60 mm petri dishes, and cultured in Ham's F-12 medium (Sigma Co.) containing 10% fetal bovine serum (BioWest Co.) at 37° C. in 5% gaseous carbon dioxide for 1 day, after which 480 μL of the liposome was added drop by drop on to the cells in each petri dish. This was cultured at 37° C. in 5% gaseous carbon dioxide for 6 hours, after which the cells were twice washed with serum-free Ham's F-12 medium; 3 mL of 15% glycerol was added onto the cells in the petri dish and treated for 2 minutes. This was again washed 3 times with serum-free Ham's F-12 medium, after which the cells were cultured in Ham's F-12 medium containing 10% fetal bovine serum at 37° C. in 5% gaseous carbon dioxide. The cells were dispersed by trypsinization and recovered from the petri dishes, and seeded to a 6-well plate at 2.5×10^4 or 4×10^4 cells per well; cultivation was begun in Dulbecco's modified Eagle medium <DMEM> medium (Sigma Co.) containing dialyzed 10% fetal bovine serum (Invitrogen Co.) at 37° C. in 5% gaseous carbon dioxide. Since plasmid-introduced transformant CHO cells grow in the medium, whereas cells without plasmid introduction die gradually, about 20 colonies of transformed CHO cell that had grown 9-13 days after the start of the cultivation were isolated. […]

Substance | GBA EC50 Ratio (human Y2 receptor [1]) | RBA IC50 Ratio (human Y2 receptor [2])
Isobutanoyl-[Abu26, Cha27,28,36, Abu30, Aib31]-PYY(25-36) (Isobutyryl-R[Abu][Cha][Cha]N[Abu][Aib]TRQR[Cha]-NH2; SMILES CC[C@H](NC(=O)[C@H](CCCNC(=N)N)NC(=O)C(C)C)C(=O)N[C@@H](CC1CCCCC1)C(=O)N[C@@H](CC1CCCCC1)C(=O)N[C@@H](CC(N)=O)C(=O)N[C@@H](CC)C(=O)NC(C)(C)C(=O)N[C@H](C(=O)N[C@@H](CCCNC(=N)N)C(=O)N[C@@H](CCC(N)=O)C(=O)N[C@@H](CCCNC(=N)N)C(=O)N[C@@H](CC1CCCCC1)C(N)=O)[C@@H](C)O) [compound No. 91] | 21 | 20
Ac-[D-Pro24, Nle25, Pya(4)26, Cha27,28,36, Aib31]-PYY(23-36) (Ac-S[dP][Nle][4Pal][Cha][Cha]NL[Aib]TRQR[Cha]-NH2; SMILES CCCC[C@H](NC(=O)[C@H]1CCCN1C(=O)[C@H](CO)NC(C)=O)C(=O)N[C@@H](Cc1ccncc1)C(=O)N[C@@H](CC1CCCCC1)C(=O)N[C@@H](CC1CCCCC1)C(=O)N[C@@H](CC(N)=O)C(=O)N[C@@H](CC(C)C)C(=O)NC(C)(C)C(=O)N[C@H](C(=O)N[C@@H](CCCNC(=N)N)C(=O)N[C@@H](CCC(N)=O)C(=O)N[C@@H](CCCNC(=N)N)C(=O)N[C@@H](CC1CCCCC1)C(N)=O)[C@@H](C)O) [compound No. 140] | 2.6 | 20
Ac-[D-Pro24, Pya(4)26, Cha27,36, Aib28,31, Cit30]-PYY(23-36) (Ac-S[dP]R[4Pal][Cha][Aib]N[Cit][Aib]TRQR[Cha]-NH2; SMILES CC(=O)N[C@@H](CO)C(=O)N1CCC[C@@H]1C(=O)N[C@@H](CCCNC(=N)N)C(=O)N[C@@H](Cc1ccncc1)C(=O)N[C@@H](CC1CCCCC1)C(=O)NC(C)(C)C(=O)N[C@@H](CC(N)=O)C(=O)N[C@@H](CCCNC(N)=O)C(=O)NC(C)(C)C(=O)N[C@H](C(=O)N[C@@H](CCCNC(=N)N)C(=O)N[C@@H](CCC(N)=O)C(=O)N[C@@H](CCCNC(=N)N)C(=O)N[C@@H](CC1CCCCC1)C(N)=O)[C@@H](C)O) [compound No. 266] | 3.1 | 2.7
Ac-[Glu23, βAla24, Pya(4)26, Cha27,36, Aib28,31, Lys30]-PYY(23-36) (Ac-E[βAla]R[4Pal][Cha][Aib]NK[Aib]TRQR[Cha]-NH2; SMILES CC(=O)N[C@@H](CCC(=O)O)C(=O)NCCC(=O)N[C@@H](CCCNC(=N)N)C(=O)N[C@@H](Cc1ccncc1)C(=O)N[C@@H](CC1CCCCC1)C(=O)NC(C)(C)C(=O)N[C@@H](CC(N)=O)C(=O)N[C@@H](CCCCN)C(=O)NC(C)(C)C(=O)N[C@H](C(=O)N[C@@H](CCCNC(=N)N)C(=O)N[C@@H](CCC(N)=O)C(=O)N[C@@H](CCCNC(=N)N)C(=O)N[C@@H](CC1CCCCC1)C(N)=O)[C@@H](C)O) [compound No. 223] | 3.9 | 7.4
Ac-[Hyp23, D-Pro24, Cha27,28,36, Aib31]-PYY(23-36) (Ac-[Hyp][dP]RH[Cha][Cha]NL[Aib]TRQR[Cha]-NH2; SMILES CC(=O)N1C[C@H](O)C[C@H]1C(=O)N1CCC[C@@H]1C(=O)N[C@@H](CCCNC(=N)N)C(=O)N[C@@H](Cc1c[nH]cn1)C(=O)N[C@@H](CC1CCCCC1)C(=O)N[C@@H](CC1CCCCC1)C(=O)N[C@@H](CC(N)=O)C(=O)N[C@@H](CC(C)C)C(=O)NC(C)(C)C(=O)N[C@H](C(=O)N[C@@H](CCCNC(=N)N)C(=O)N[C@@H](CCC(N)=O)C(=O)N[C@@H](CCCNC(=N)N)C(=O)N[C@@H](CC1CCCCC1)C(N)=O)[C@@H](C)O) [compound No. 126] | 5.0 | 7.3
Benzoyl-[Cha27,36, Ile28,31, Phe(4NH2)30]-PYY(25-36) (Bz-RH[Cha]IN[Phe(4-NH2)]ITRQR[Cha]-NH2; SMILES CC[C@H](C)[C@H](NC(=O)[C@H](CC1CCCCC1)NC(=O)[C@H](Cc1c[nH]cn1)NC(=O)[C@H](CCCNC(=N)N)NC(=O)c1ccccc1)C(=O)N[C@@H](CC(N)=O)C(=O)N[C@@H](Cc1ccc(N)cc1)C(=O)N[C@H](C(=O)N[C@H](C(=O)N[C@@H](CCCNC(=N)N)C(=O)N[C@@H](CCC(N)=O)C(=O)N[C@@H](CCCNC(=N)N)C(=O)N[C@@H](CC1CCCCC1)C(N)=O)[C@@H](C)O)[C@@H](C)CC) [compound No. 73] | 6.6 | 12
Benzoyl-[Cha27,36, Ile28, Dap31]-PYY(25-36) (Bz-RH[Cha]INL[Dap]TRQR[Cha]-NH2; SMILES CC[C@H](C)[C@H](NC(=O)[C@H](CC1CCCCC1)NC(=O)[C@H](Cc1c[nH]cn1)NC(=O)[C@H](CCCNC(=N)N)NC(=O)c1ccccc1)C(=O)N[C@@H](CC(N)=O)C(=O)N[C@@H](CC(C)C)C(=O)N[C@@H](CN)C(=O)N[C@H](C(=O)N[C@@H](CCCNC(=N)N)C(=O)N[C@@H](CCC(N)=O)C(=O)N[C@@H](CCCNC(=N)N)C(=O)N[C@@H](CC1CCCCC1)C(N)=O)[C@@H](C)O) [compound No. 69] | 28 | 37
